# Reference: publication PMC12048488
# Target: HTT-Q20 (endogenous knock-in huntingtin: mouse Htt with humanized HTT exon 1, normal polyQ) (human | mouse)
# Experiment: affinity purification with mass spectrometry; evaluation of antibodies: IP-MS from whole brain and striatum lysates of 8-week Q20 and Q140 mice with EPR5526, 2B7-4C9, 4E10-3E10 or 138-139 antibodies against mIgG controls
binder,measurement,value
"HAP40 (F8a1), Huntingtin-associated protein 40 (natural protein) MAAGSASSLGGGAWPGSEAGDFLARYRQVSNKLKKRFLRKPNVAEAGEQFAQLARELRAQECLPYAAWCQLAVARCQQALFHGPGEALALTEAARLFLRQECDARQRLGCPAAYGEPLQAAASALGAAVRLHLELGQPAAAAALCLELAAALRAVGQPAAAAGHFQRAAQLHLPLMPLAALQALGDAASCQLLARDYTGALALFTRMQRLAREHGGHPVQQLELLPQPPSGPQPPLSGPQPRPVLGSTLPLPQPPDHAPGSVAPSPGTLGAFADVLVRCEVSRVLLLLLLQPPPAKLLPEHAQTLEKYSWEAFDGHGQDTSGQLPEELFLLLQSLVMAAQEKDTEGIKKLQVEMWPLLTAEQNHLLHLVLQETISPSGQGV",stoichiometry N (HTT:HAP40 ratio),1
